Data published in patent publication US20250382371A1 (NATIONAL INSTITUTES OF BIOMEDICAL INNOVATION HEALTH AND …, published 2025).

Columns and labels:
[1] = target: T1, cynomolgus monkey FCRL1 (XP_015310712), transiently expressed on 293T cells (cynomolgus monkey); experiment: flow cytometry on 293T cells transiently expressing cynomolgus monkey FCRL1
T1 chain: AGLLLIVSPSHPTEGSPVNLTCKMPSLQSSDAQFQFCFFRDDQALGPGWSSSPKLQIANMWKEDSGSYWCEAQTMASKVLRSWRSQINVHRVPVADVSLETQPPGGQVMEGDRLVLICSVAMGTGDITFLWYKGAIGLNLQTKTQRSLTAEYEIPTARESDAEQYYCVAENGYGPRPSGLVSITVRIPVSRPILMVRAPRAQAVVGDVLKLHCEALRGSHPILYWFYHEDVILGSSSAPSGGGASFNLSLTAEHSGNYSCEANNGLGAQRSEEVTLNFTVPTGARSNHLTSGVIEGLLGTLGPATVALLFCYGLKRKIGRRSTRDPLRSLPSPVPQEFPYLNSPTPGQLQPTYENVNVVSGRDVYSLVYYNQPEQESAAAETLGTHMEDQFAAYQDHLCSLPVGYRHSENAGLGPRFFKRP
Protocol: An antigen-specific reactivity of the novel anti-human FCRL1 mouse antibody obtained in Example 4 was evaluated by Flow Cytometry (FCM). FCRL1 antigen-expressing cells were prepared by transiently expressing the recombinant FCRL1 antigen on 293T cells. A codon-optimized cDNA was synthesized based on the amino acid sequence of human FCRL1 (NCBI accession number: NP_443170.1) or cynomolgus monkey FCRL1 (XP_015310712), and a fragment in which the sequence of an internal ribosome entry site (IRES) derived from the encephalomyocarditis virus (EMCV) and the sequence of TagBFP were arranged in tandem was cloned into pcDNA 3.1hygro to construct an expression plasmid vector for human FCRL1 or cynomolgus monkey FCRL1. […]
(§1) Cells that transiently expressed human FCRL1 or cynomolgus monkey FCRL1 were reacted with a 3-fold dilution series of each antibody starting from 100 nM (15 μg/ml) at 12 points. Data obtained by the FCM was analyzed, and a binding amount of each antibody bound to the cell was calculated as a fluorescence amount MFI derived from the PE-labeled secondary antibody. An antibody concentration and the measured MFI were plotted with respect to a logarithm of the antibody concentration, a saturated binding curve of each antibody was obtained, and regression was performed by a 4-parameter logistic model.

[2] = target: T2, human FCRL1 (NCBI accession number: NP_443170.1), transiently expressed on 293T cells (human, UniProt Q96LA6 17-429); experiment: flow cytometry on 293T cells transiently expressing human FCRL1; apparent KD from EC50 of a 4-parameter fit
T2 construct: also called Fc receptor-like protein 1; CD307a
T2 sequence: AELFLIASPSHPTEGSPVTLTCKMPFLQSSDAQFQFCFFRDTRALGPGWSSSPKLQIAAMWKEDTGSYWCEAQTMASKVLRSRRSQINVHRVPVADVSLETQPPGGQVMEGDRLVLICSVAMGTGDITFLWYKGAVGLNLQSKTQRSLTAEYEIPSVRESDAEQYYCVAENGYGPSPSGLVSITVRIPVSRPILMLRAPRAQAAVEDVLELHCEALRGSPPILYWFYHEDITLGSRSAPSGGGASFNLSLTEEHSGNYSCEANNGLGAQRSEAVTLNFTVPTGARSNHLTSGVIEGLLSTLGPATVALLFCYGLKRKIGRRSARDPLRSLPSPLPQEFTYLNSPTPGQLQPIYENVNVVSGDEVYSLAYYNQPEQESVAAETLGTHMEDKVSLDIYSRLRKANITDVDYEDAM
Protocol: An antigen-specific reactivity of the novel anti-human FCRL1 mouse antibody obtained in Example 4 was evaluated by Flow Cytometry (FCM). FCRL1 antigen-expressing cells were prepared by transiently expressing the recombinant FCRL1 antigen on 293T cells. A codon-optimized cDNA was synthesized based on the amino acid sequence of human FCRL1 (NCBI accession number: NP_443170.1) or cynomolgus monkey FCRL1 (XP_015310712), and a fragment in which the sequence of an internal ribosome entry site (IRES) derived from the encephalomyocarditis virus (EMCV) and the sequence of TagBFP were arranged in tandem was cloned into pcDNA 3.1hygro to construct an expression plasmid vector for human FCRL1 or cynomolgus monkey FCRL1. The purified expression vector was transfected into 293T cells, cells were collected 2 days after transfection, and binding with each antibody was confirmed by FCM.
As the secondary antibody, when the sample is a mouse antibody, R-Phycoerythrin (PE) F(ab′)₂ Fragment Goat Anti-Mouse IgG (H+L) (Jackson ImmunoResearch) was used, and when the sample is a human antibody or a human chimeric antibody, R-Phycoerythrin (PE) F(ab′)₂ Fragment Goat Anti-Human IgG, Fcγ Fragment Specific (Jackson ImmunoResearch) was used. A solution of each secondary antibody was prepared by diluting the stock solution 200 times with an FCM buffer. After washing once, cells in each well were suspended with 100 μL of FCM buffer, and binding to each antibody was confirmed by flow cytometry (FCM).
as §1

binding result [1]: no binding
Kd [2]: 0.4 nM
B1: anti-human FCRL1 mouse monoclonal antibody DK610 (antibody, V domains shown)
VH: DVLLQESGPGLVKPSQSLSLTCSVAGYSITSDYAWNWLRRFPGNRLEWMGYITYSGSTAYHPSLKGRISFTRDTSQNQVFLQLHSVTTEDSATYYCAQGGTLITTWFLRWGQGTLVTVSA
VL: DIVLTQSPASLAVSLGQRATISCRASKSVSTSDYNYMHWYRQKPGQPPKLFIYLASNLESGVPARFSGSGSGTDFTLNIHPVEEEDAATYYCQQSRELPSTFGGGTKLEIK
